According to the nanobody polyreactivity screen of Harvey et al. (2022):

Assay: yeast display, Sf9 membrane polyspecificity reagent, FACS + sequencing; frameworks hold sequencing errors
Summary of the method: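 A synthetic nanobody library was expressed on Saccharomyces cerevisiae BJ5465 by galactose induction for 36–48 hours. The library was stained for 1 hour at 4 °C with 10% biotinylated, detergent-solubilized Sf9 membrane reagent and enriched with streptavidin microbeads before FACS. Low and high (top ~1%) gates were set on anti-HA fluorescence for expression and streptavidin fluorescence for reagent binding, and each polyreactivity label reflects the gate of origin.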

| Sequence | polyreactivity (PSR sort gate) |
| --- | --- |
| QVQLVESGGGLVQAGGSLRLSCAASGRIYGDNTMGWYRQAPGKEREFVAAISFIGGSTYYADSVKGRFTISRDNAKNTVYLQMNSLKPEDTAVYYCATVERWTYWFVGYDYWGQGTQVTGSS | high polyreactivity |
| QVQLVESGGGLVQAGGSLRLSCAASGIIFRGYVMGWYRQAPGKERELVAAISRSGGRTYYADSVKGRFTISRDNAKNTVYLQMNSLKPEDTAVYYCNAVRYVLGYSYDYNYWGQGTQVTVSS | high polyreactivity |
| QVHLQESGGGLMQAGGNLRLSCAASGYISTHYDMDWYRQAPGKERELVARIDDGAITNYADSVKGRFTISRDNAKNTVYLQMNSLKPEDTEVYYCAVYSGDDYYHDYWGQGTQVTVSS | low polyreactivity |
| QVQLVESGGGLVQAGGSLRLSCAASGFIFQAYALGWYRQAPGKERELVASISYSGSRTYYADSVKGRFTISRDNAKNTVYLQMNSLKPEDTAGYYCAARYGRYYKYNYWGQGTQVTVSS | high polyreactivity |
| QVQLVESGGGLVQAGGSLRLSCAASGRTFGGYAMGWYRQAPGKERELVAAIRWSGGSTYYADSVKGRFTISRDNAKNTVYLQMNSLKPEDTAVYNCAARSHTSADGGRYYYWGQGTQVTVSS | high polyreactivity |
| QVQLVESGGGLVQAGGSLRLSCAASGRIFRRYARGWYRQAPGKERELVATISRGGSNTSYADSVKGRFTISRDNAKNTVYLQMNSLKPEDTAVYYCAKGSVRYYVGYDYWGQGTQVSVSS | high polyreactivity |
| QVQLVESGGGLVQAGGSLRLSCAASGGTFFSYAMGWYRQAPGKERELVAAISRGGDTTYADSVKGRFTISRDNAKNTVYLQMNSLKPEDTAVYYCAARVPPLLTDSPVFPYDYWGQGTQVTVSS | low polyreactivity |
| QVQLVESGGGLVLAGGSLPLSCAASGSIIWRNAMGWSRHAPVKERELVAAITWNGGSTYYADSVKGCFTSSRDNAKNTVYLQMNSLIPEDTAVYYSAARCEYPYDYWGQGSQVTVSS | low polyreactivity |
| QVQLVESGGGLVQAGGSLRLSCAASGIIFASNGMGWYRQAPGKERELVAAISSGGSTNYADSVKGLFTISRDHAKNTVYLQMNSLKPEDTAVYYCAADRWDRDYDYWGQGTQVTVSS | low polyreactivity |
| QVQLVESGGGLVQAVGSLRLSCAASGSTLSANAMGWYRQAPGKEWELVAAISWNGGCTYYADSVKGRFTISRDNAKNTVYLQMNSLKPEDTAVYYCAAEYIVTYEYWYFGYDYWGQGTQVTVSS | low polyreactivity |
| QVQLVESGGGLVQAGGSLRLSCAASGLIFQVYDIGWYRQAPGKERELVAAISSGSNTNYADSVKGRFTISRDNAKNTVYLQMNSLKPEDTAVYYCAADFQYYFFWEEDYWGQGTQVTVSS | low polyreactivity |
| QVQLVESGGGLVQAGGSLRLSCAASGSIFQSNAMGWYRQAPGKEREFVAAITASGGRTYYADSVKGRFTISRDNAKNTDYLLMNSLKPEDTAVYFCAARGRYYWGGRSYDYWGHGTQVTVSS | high polyreactivity |
| QVQLVESGGGLVQAGGSLRLSCAASGSNFVGNAMGWYRQAPGKERELFAAISSGGSTYYADSVKGRFTISRDNAKNTVYLQLNSLKPEDTAVYYCAAYYVRRYSSRPKDDYWGQGTQVTVSS | low polyreactivity |
| QVQLVESGGGLVQAGGSLRLSCAASGRTFDYNTMGWYRQAPGKVRELVAAISASGGSTYYADSVKGRFTISRDNAKNTVDLPMNSLKPEDTAVYYCNTYAGVEYYHWGQGTQVTVSS | low polyreactivity |
| QVQLVESGGGLVQAGGSLRLSCAASGRTFGAYAMGWYRQAPGKERELVAAIDSGGITYYADSVKGRFTISRDNAKNTVYLQMNSLKPEDTAVYYCAADHRVVTFYEGDYWGQGTQVTVSS | low polyreactivity |
| QVQLVESGGGLVQAGGSLRLSCAASGGTFYGNAMGWYRQAPGKERELVAGITDDSSTYYADSVKGRFTISRDNAKNTVYLQMNSLKPEDTAVYYCAKDLSWYYLPEVYYWGQGTQVTVSS | low polyreactivity |
| QVQLVESGGGLVQAGGSLRLSCAASGRTFAINVMGWYRQAPGKEMELVASIRGRGGRTNYADSVKGRFTISRDNAKNSVYLQMNSLKPEDTAVYYCAAAYTGGGQYEYEYWGQGTQVTVSS | high polyreactivity |
| QDQLVESGGGLVQAGGSLRLSCAASGSILGHYDMGWYRPAPGKERELVAAISWSGGSTYYADSVKGRFTISRDNAKNTVYLQMNSLKPEDTAVYYCNAAAILYTSAGSLYWYDYWGQGTQVTVSS | low polyreactivity |
| QVQLVESGGGLVQAGGSLRLSCAASGSIFVDNAMGWYRQAPGKERELVAAITDSGGRTYYADSVKGRFTISRDNAKNTVYLQMNSLKPEDTAVYYCAAGQSGYAGRRPAFGYWGQGTQVTVSS | low polyreactivity |
| QVQLVESGGGLDQAGGSLRLSCAASGSTFLYYAMGWYRQAPGKEREFVARITTRVGRTYYADSVKGRFTISRDNAKNTVSLQMNSLKPEDTAVYYCAAVRISRTPRGLYEYWGQGTQVTVSS | high polyreactivity |
| QVQLVESGGGLVQAGGSLRLSCAASGRIFPVNAMGWYRQAPGKERELVATISSGDITNYADSVKGRFTISRDNAKNTVYLQMNSLKPEDTAVYYCAADYTWRAWTYYGIKYNYWGQGTQVTVSS | low polyreactivity |
